This note sets out measurements from US20030186329A1, “Use of substrate subtraction libraries to distinguish enzyme specificities” (The Scripps Research Institute, priority 1998, published 2003).

Test [1] concerns the target tissue plasminogen activator (t-PA) (human) (UniProt P00750). In words: inhibition kinetics, residual enzymatic activity.
Test [2] addresses urokinase-type plasminogen activator (u-PA) (human) (UniProt P00749). Nature of the test: inhibition kinetics, residual enzymatic activity.
In test [3] the target is tissue plasminogen activator (t-PA) (human) (UniProt P00750). In words: ratio of the rate constants for inhibition of t-PA and u-PA.
Test [4] concerns the target urokinase-type plasminogen activator (u-PA) (human) (UniProt P00749). Nature of the test: ratio of the rate constants for inhibition of u-PA, wild type against variant.
For test [5] the target is unchanged. Nature of the test: ratio of the rate constants for inhibition of u-PA and t-PA.
The target is the same in test [6]. In words: inhibition kinetics, residual enzymatic activity, indirect chromogenic assay.

tissue plasminogen activator (t-PA) (human), sequence (P00750 36-562 limits assumed): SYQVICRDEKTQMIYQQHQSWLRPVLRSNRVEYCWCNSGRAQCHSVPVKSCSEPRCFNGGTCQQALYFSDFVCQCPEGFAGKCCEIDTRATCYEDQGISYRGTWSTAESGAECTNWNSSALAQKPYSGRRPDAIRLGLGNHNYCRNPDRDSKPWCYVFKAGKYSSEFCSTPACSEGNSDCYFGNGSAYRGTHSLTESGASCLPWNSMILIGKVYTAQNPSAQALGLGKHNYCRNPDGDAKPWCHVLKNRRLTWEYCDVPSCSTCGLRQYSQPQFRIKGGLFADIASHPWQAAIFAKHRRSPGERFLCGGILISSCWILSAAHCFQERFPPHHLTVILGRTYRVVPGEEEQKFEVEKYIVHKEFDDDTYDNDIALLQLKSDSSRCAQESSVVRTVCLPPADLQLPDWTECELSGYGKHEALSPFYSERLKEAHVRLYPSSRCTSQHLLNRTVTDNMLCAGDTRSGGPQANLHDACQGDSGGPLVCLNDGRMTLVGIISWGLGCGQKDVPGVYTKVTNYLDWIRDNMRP

Take “PAI-1/P4Q, P3R (from UniProt P05121 24-402)”: the second order rate constant for inhibition in test [1] was 1.4e+06 M⁻¹ s⁻¹; in test [2], 29000 M⁻¹ s⁻¹. The t-PA/u-PA Selectivity in test [3] amounted to 48.
Take PAI-1/P3R (from UniProt P05121 24-402): the results for the second order rate constant for inhibition in test [1] and in test [2] were 1.4e+06 M⁻¹ s⁻¹ and 100000 M⁻¹ s⁻¹, respectively. Moreover, in test [3], the t-PA/u-PA Selectivity is 14. The fold reduction of activity against wild type PAI-1 in test [4] was found to be 190 fold.
As to “wild type plasminogen activator inhibitor type 1 (PAI-1) (from UniProt P05121 24-402) (other; other documents disagree on this pair)”, in test [5], the fold specificity toward u-PA over t-PA stood at 11.9 fold. The second order rate constant for inhibition in test [6] came out at 1.9e+07 M⁻¹ s⁻¹.
